Read-outs that look alike come from different tables or passages of the source.
Columns and labels:
Assay in all cases: AUC
[1] = biological target: Bacillus anthracis inosine-5'-monophosphate dehydrogenase (Bacillus thuringiensis serovar monterrey BGSC 4AJ1 (sequence 100% identical to B. anthracis IMPDH))
[2] = biological target: Bacillus anthracis inosine-5'-monophosphate dehydrogenase (Bacillus thuringiensis serovar monterrey BGSC 4AJ1 (sequence 100% identical to B. anthracis IMPDH)); remark: listed apart in the source
[3] = biological target: Klebsiella pneumoniae inosine-5'-monophosphate dehydrogenase (Klebsiella pneumoniae strain 52145)
[4] = biological target: Klebsiella pneumoniae inosine-5'-monophosphate dehydrogenase (Klebsiella pneumoniae strain 52145); remark: listed apart in the source

Substance	stoichiometry N [1]	stoichiometry N [2]	stoichiometry N [3]	stoichiometry N [4]
Bacillus anthracis inosine-5'-monophosphate dehydrogenase (from UniProt A0A0K0Q667 1-487) (enzyme)	4	8		
Klebsiella pneumoniae inosine-5'-monophosphate dehydrogenase (enzyme)			4	8

Source: article PMC4338043
